T1: KRAS G12D peptide on HLA-A*11:01 (human)
T1 peptide: VVVGADGVGK


Experiments:
[1] = biological target: T1, KRAS G12D peptide on HLA-A*11:01; assay: CD137 by flow cytometry; transduced primary CD4+ and CD8+ T cells, TRAC/TRBC double knockout; G12D peptide titrated (FIG. 3D); full-length, on cells
Description: (§1) Primary CD4+ and CD8+ T cells were transduced with a KRAS-G12D-specific T cell receptor (TCR69, TCR79, TCR80, TCR81, or TCR91), and were either edited to knockout TRAC and TRBC or left with unmodified TRAC and TRBC genes, and expanded for several days. Engineered T cells were incubated with G12D peptide at decreasing concentrations and T cell responses were assessed by measuring CD137 expression.
(§2) In additional experiments, the effect of TRAC and TRBC knockout was evaluated for primary CD4+ and CD8+ T cells transduced with further KRAS-G12D-specific TCRs. The double knockout improved TCR avidity for multiple TCRs as shown in FIG. 3C (corresponding EC50 values in TABLE 2 and Cmax values in TABLE 3), FIG. 3D (corresponding EC50 values in TABLE 4), and FIG. 3E (corresponding EC50 values in TABLE 5).

[2] = biological target: T1, KRAS G12D peptide on HLA-A*11:01; assay: CD137 by flow cytometry; transduced primary CD4+ and CD8+ T cells, TRAC/TRBC wild type; G12D peptide titrated (FIG. 3D); full-length, on cells
Description: as §1, §2

[3] = biological target: T1, KRAS G12D peptide on HLA-A*11:01; assay: CD137 by flow cytometry; transduced primary CD4+ and CD8+ T cells, TRAC/TRBC wild type; G12D peptide titrated (FIG. 3C); full-length, on cells
Description: as §1, §2

[4] = biological target: T1, KRAS G12D peptide on HLA-A*11:01; assay: CD137 by flow cytometry; transduced primary CD4+ and CD8+ T cells without knockout of TRAC and TRBC; G12D peptide titrated (FIG. 3C); full-length, on cells
Description: as §1, §2

[5] = biological target: T1, KRAS G12D peptide on HLA-A*11:01; assay: CD137 by flow cytometry; transduced primary CD4+ and CD8+ T cells, TRAC/TRBC wild type; G12D peptide titrated (FIG. 3E); full-length, on cells
Description: as §1, §2

[6] = biological target: T1, KRAS G12D peptide on HLA-A*11:01; assay: CD137 by flow cytometry; transduced primary CD4+ and CD8+ T cells, TRAC/TRBC double knockout; G12D peptide titrated (FIG. 3C); full-length, on cells
Description: as §1, §2

[7] = biological target: T1, KRAS G12D peptide on HLA-A*11:01; assay: CD137 by flow cytometry; transduced primary CD4+ and CD8+ T cells, TRAC/TRBC double knockout; G12D peptide titrated (FIG. 3E); full-length, on cells
Description: as §1, §2

| EC50 of peptide [1] [nM] | EC50 of peptide [2] [nM] | EC50 of peptide [3] [nM] | Cmax [4] [%] | EC50 of peptide [5] [nM] | EC50 of peptide [6] [nM] | EC50 of peptide [7] [nM] | Binder |
| --- | --- | --- | --- | --- | --- | --- | --- |
| 14.4 | 179 | 131 | 14.4 | 131 | 36.5 | 36.5 | TCR91 (TCR, V domains shown) Valpha: AQKVTQAQTEISVVEKEDVTLDCVYETRDTTYYLFWYKQPPSGELVFLIRRNSFDEQNEISGRYSWNFQKSTSSFNFTITASQVVDSAVYFCALNEGGGSTLGRLYFGRGTQLTVWP Vbeta: DAMVIQNPRYQVTQFGKPVTLSCSQTLNHNVMYWYQQKSSQAPKLLFHYYDKDFNNEADTPDNFQSRRPNTSFCFLDIRSPGLGDAAMYLCATSTGRVYQPQHFGDGTRLSIL |
| 6.4 | 12.2 |  |  | 24 |  | 14.3 | TCR6 (TCR, V domains shown) Valpha: GQQLNQSPQSMFIQEGEDVSMNCTSSSIFNTWLWYKQDPGEGPVLLIALYKAGELTSNGRLTAQFGITRKDSFLNISASIPSDVGIYFCAGRREGAQKLVFGQGTRLTINP Vbeta: GAGVSQSPRYKVAKRGQDVALRCDPISGHVSLFWYQQALGQGPEFLTYFQNEAQLDKSGLPSDRFFAERPEGSVSTLKIQRTQQEDSAVYLCASSSTLMGVNIQYFGAGTRLSVL |
| 12.2 | 51.1 |  |  | 119 |  | 64.1 | TCR1 (TCR, V domains shown) Valpha: GDSVTQMEGPVTLSEEAFLTINCTYTATGYPSLFWYVQYPGEGLQLLLKATKADDKGSNKGFEATYRKETTSFHLEKGSVQVSDSAVYFCALSDRVGGARLMFGDGTQLVVKP Vbeta: EADIYQTPRYLVIGTGKKITLECSQTMGHDKMYWYQQDPGMELHLIHYSYGVNSTEKGDLSSESTVSRIRTEHFPLTLESARPSHTSQYLCASSEGLYNEQFFGPGTRLTVL |
| 9.4 | 37.8 | 36.3 | 23.9 | 36.3 | 7.6 | 7.6 | TCR5 (TCR, V domains shown) Valpha: GEDVEQSLFLSVREGDSSVINCTYTDSSSTYLYWYKQEPGAGLQLLTYIFSNMDMKQDQRLTVLLNKKDKHLSLRIADTQTGDSAIYFCAERDAGNNRKLIWGLGTSLAVNP Vbeta: GAGVSQSPRYKVAKRGQDVALRCDPISGHVSLFWYQQALGQGPEFLTYFQNEAQLDKSGLPSDRFFAERPEGSVSTLKIQRTQQEDSAVYLCASSLEGGDTQYFGPGTRLTVL |
| 4.4 | 31.1 | 49.8 | 16 | 49.8 | 11.8 | 11.8 | TCR4 (TCR, V domains shown) Valpha: QKEVEQDPGPLSVPEGAIVSLNCTYSNSAFQYFMWYRQYSRKGPELLMYTYSSGNKEDGRFTAQVDKSSKYISLFIRDSQPSDSATYLCAMGALNSGAGSYQLTFGKGTKLSVIP Vbeta: KAGVTQTPRYLIKTRGQQVTLSCSPISGHRSVSWYQQTPGQGLQFLFEYFSETQRNKGNFPGRFSGRQFSNSRSEMNVSTLELGDSALYLCASSLSSGTGTEAFFGQGTRLTVE |
| 7.3 | 22.2 | 31.6 | 42.7 | 31.6 | 10.1 | 10.1 | TCR2 (TCR, V domains shown) Valpha: AQTVTQSQPEMSVQEAETVTLSCTYDTSENNYYLFWYKQPPSRQMILVIRQEAYKQQNATENRFSVNFQKAAKSFSLKISDSQLGDTAMYFCAFMYPSQGGSEKLVFGKGMKLTVNP Vbeta: ETGVTQSPTHLIKTRGQQVTLRCSSQSGHNTVSWYQQALGQGPQFIFQYYREEENGRGNFPPRFSGLQFPNYSSELNVNALELDDSALYLCASSSPGFRSYGYTFGSGTRLTVV |

Source: patent US20260027208A1 (published 2026)
